# Data: the supplement of paper PMC11908140
# B1: library; numbered along this chain (parent)
# chain: MRKPRAAVGSGHRKQAASQEGRQKHAKNNSQAKPSACDGLARQPEEVVLQASVSSYHLFRDVAEVTAFRGSLLSWYDQEKRDLPWRRRAEDEMDLDRRAYAVWVSEVMLQQTQVATVINYYTGWMQKWPTLQDLASASLEEVNQLWAGLGYYSRGRRLQEGARKVVEELGGHMPRTAETLQQLLPGVGRYTAGAIASIAFGQATGVVDGNVARVLCRVRAIGADPSSTLVSQQLWGLAQQLVDPARPGDFNQAAMELGATVCTPQRPLCSQCPVESLCRARQRVEQEQLLASGSLSGSPDVEECAPNTGQCHLCLPPSEPWDQTLGVVNFPRKASRKPPREESSATCVLEQPGALGAQILLVQRPNSGLLAGLWEFPSVTWEPSEQLQRKALLQELQRWAGPLPATHLRHLGEVVHTFSHIKLTYQVYGLALEGQTPVTTVPPGARWLTQEEFHTAAVSTAMKKVFRVYQGQQPGTCMGSKRSQVSSPCSRKKPRMGQQVLDNFFRSHISTDAHSLNSAAQ
# Variants of: B1
# Test: 8OG:A repair function score (normalized; synonymous = 0, nonsense = -1) (normalized log-likelihood score); higher = more repair activity (WT-like)
# Details: with 8OG:A DNA repair reporter (GFP) in HEK-293 MUTYH KO cells
# Summary of the method: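 GFP+ (repair) and GFP− bins of viable mCherry+ cells were collected at 72 h from MUTYH knockout HEK-293 cells bearing lentiviral MUTYH cDNA NNN codon-scan libraries in 10 pg/ml doxycycline, co-transfected with an 8OG:A GFP repair reporter and mCherry. Tile amplicons were sequenced, and per-tile Rosace fitness scores were normalized to a repair function score anchored on synonymous and nonsense distributions. Synonymous medians were set to 0 and nonsense to -1, with variants under 300 counts per million at the start removed.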
# 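Note: cells sorted at 72 h after reporter transfection.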
row,Variant,8OG:A repair function score
1,MRKPRAAVGSGHRKQAASQEGRQKHAKNNSQAKPSACDGLARQPEEVVLQASVSSYHLFRDVAEVTAFRGSLLSWYDQEKRDLPWRRRAEDEMDLDRRAYAVWVSEVMLQQTQVATVINYYTGWMQKWPTLQDLASASLEEVNQLWAGLGYYSRGRRLQEGARKVVEELGGHMPRTAETLQQLLPGVGRYTAGAIASIAFGQATGVVDGNVARVLCRVRAIGADPSSTLVSQQLWGLAQQLVDPARPGDFNQAAMELGATVCTPQRPLCSQCPVESLCRARQRVEQEQLLASGSLSGSPDVEECAPNTGQCHLCLPPSEPWDQTLGVVNFPRKASRKPPREESSATCVLEQPGALGAQILLVQRPNSGLLAGLWEFPSVTWEPSEQLQRKALLQELQRWAGPLPATHLRHLGEVVHTFSHIKLTYQVYGLALEGQTPVTTVPPGARWLTQEEFHTAAVSTWMKKVFRVYQGQQPGTCMGSKRSQVSSPCSRKKPRMGQQVLDNFFRSHISTDAHSLNSAAQ [A461W],-1.22
2,MRKPRAAVGSGHRKQAASQEGRQKHAKNNSQAKPSACDGLARQPEEVVLQASVSSYHLFRDVAEVTAFRGSLLSWYDQEKRDLPWRRRAEDEMDLDRRAYAVWVSEVMLQQTQVATVINYYTGWMQKWPTLQDLASASLEEVNQLWAGLGYYSRGRRLQEGARKVVEELGGHMPRTAETLQQLLPGVGRYTAMAIASIAFGQATGVVDGNVARVLCRVRAIGADPSSTLVSQQLWGLAQQLVDPARPGDFNQAAMELGATVCTPQRPLCSQCPVESLCRARQRVEQEQLLASGSLSGSPDVEECAPNTGQCHLCLPPSEPWDQTLGVVNFPRKASRKPPREESSATCVLEQPGALGAQILLVQRPNSGLLAGLWEFPSVTWEPSEQLQRKALLQELQRWAGPLPATHLRHLGEVVHTFSHIKLTYQVYGLALEGQTPVTTVPPGARWLTQEEFHTAAVSTAMKKVFRVYQGQQPGTCMGSKRSQVSSPCSRKKPRMGQQVLDNFFRSHISTDAHSLNSAAQ [G193M],-0.156
3,MRKPRAAVGSGHRKQAASQEGRQKHAKNNSQAKPSACDGLARQPEEVVLQASVSSYHLFRDVAEVTAFRGSLLSWYDQEKRDLPWRRRAEDEMDLDRRAYAVWVSEVMLQQTQVATVINYYTGWMQKWPTLQDLASASLEEVNQLWAGLGYYSRGRRLQEGARKVVEELGGHMPRTAETLQQLLPGVGRYTAGAIASIAFGQATGVVDGNVARVLCRVRAIGADPSSTLVSQQLWGLAQQLVDPARPGDFNQAAMELGATVCTPQRPLCSQCPVESLCRARQRVEQEQLLASGSLSGSPDVEECAPNTGQCHLCLPPSEPWDQTLGVVNFPRKASRKPPREESSATCVLEQPGATGAQILLVQRPNSGLLAGLWEFPSVTWEPSEQLQRKALLQELQRWAGPLPATHLRHLGEVVHTFSHIKLTYQVYGLALEGQTPVTTVPPGARWLTQEEFHTAAVSTAMKKVFRVYQGQQPGTCMGSKRSQVSSPCSRKKPRMGQQVLDNFFRSHISTDAHSLNSAAQ [L355T],0.059
4,MRKPRAAVGSGHRKQAASQEGRQKHAKNNSQAKPSACDGLARQPEEVVLQASVSSYHLFRDVAEVTAFRGSLLSWYDQEKRDLPWRRRAEDEMDLDRRAYAVWVSEVMLQQTQVATVINYYTGWMQKWPTLQDLASASLEEVNQLWAGLGYYSRGRRLQEGARKVVEELGGHMPRTAETLQQLLPGVGRYTAGAIASIAFGQATGVVDGNVARVLCRVRAIGADPSSTLVSQQLWGLAQQLVDPARPGDFNQAAMELGATVCTPQRPLCSQCPVESLCRARQRVEQEQLLASGSLSGSPDVEECAPNTGQCHLCLPPSEPWDQTLGVVNFPRKASRKPPREESSATCVLEQPGALGAQILLVQRPNSGLLAGLWEFPSVTWEPSEQLQRKALLQELQRWAGPLPATHLRHLGEVVHTFSHIKLTYRVYGLALEGQTPVTTVPPGARWLTQEEFHTAAVSTAMKKVFRVYQGQQPGTCMGSKRSQVSSPCSRKKPRMGQQVLDNFFRSHISTDAHSLNSAAQ [Q426R],-0.143
5,MRKPRAAVGSGHRKQAASQEGRQKHAKNNSQAKPSACDGLARQPEEVVLQASVSSYHLFRDVAEVTAFRGSLLSWYDQEKRDLPWRRRAEDEMDLDRRAYAVWVSEVMLQQTQVATVINYYTGWMQKWPTLQDLASASLEEVNQLWAGLGYYSRGRRLQEGARKVVEELGGHMPRTAETLQQLLPGVGRYTAGAIASIAFGQATGVVDGNVARVLCRVRAIGADPSSTLVSQQLWGLAQQLVDPARPGDFNQAAMELGATVCTPQRPLCSQCPVESLCRARQRVEQEQLLASGSLSGSPDVEECAPNTGQCHLCLPPSEPWDQTLGVVNFPRKASRKPPREESSATCVLEQPGALGAQILLVQRPNSGLLAGLWEFPSVTWEPSEQLQRKALLQELQRWAGPKPATHLRHLGEVVHTFSHIKLTYQVYGLALEGQTPVTTVPPGARWLTQEEFHTAAVSTAMKKVFRVYQGQQPGTCMGSKRSQVSSPCSRKKPRMGQQVLDNFFRSHISTDAHSLNSAAQ [L403K],-0.295
6,MRKPRAAVGSGHRKQAASQEGRQKHAKNNSQAKPSACDGLARQPEEVVLQASVSSYHLFRDVAEVTAFRGSLLSWYDQEKRDLPWRRRAEDEMDLDRRAYAVWVSEVMLQQTQVATVINYYTGWMQKWPTLQDLASASLEEVNQLWAGLGYYSRGRRLQEGARKVVEELGGHMPRTAETLQQLLPGVGRYTAGAIASIAFGQATGVVDGNVARVLCRVRAIGADPSSTLVSQQLWGLAQQLVDPARPGDFNQAAMELGATVCTPQRPLCSQCPVESLCRARQRVEQEQLLASGSLSGSPDVEECAPNTGQCHLCLPPSEPWDQTLGVVNFPRKASRKPPREESSATCVLEQPGALGAQILLVQRPNSGLLAGLWEFPSVTWEPSEQLQRKALLQELQRWAGPLPATHLRHLGEVVHTFSHIKLTYQVYGLALEGQTPVTTVPPGARWLTQEEFHTAAVSTAMKKVFRVYQGQQPGTCMGSKRSQVSSPCSRKKPRMGQQVLDNFFRSHISTDAHSLNSAVQ [A520V],-0.0172
